Holding throughout (experiment): FP
Test [1] addresses T1, FITC-GPMQTSpTPKNG (synthetic construct).
T1 chain: {FITC}-GPMQTS[pT]PKNG

Test [2] deals with PBD1 (residues 345–603) F559K (human, UniProt P53350 345-603, F559K).
The target in test [3] is PBD1 (residues 345–603) F559R (human, UniProt P53350 345-603, F559R).
Test [4] has as its target PBD1 (residues 345–603) F559E (human, UniProt P53350 345-603, F559E).
Test [5] concerns the target PBD1 (residues 345–603) F559D (human, UniProt P53350 345-603, F559D).
The target of test [6] is Plk1 polo-box domain, PBD1 (residues 345–603) WT (human, UniProt P53350 345-603).
In test [7] the target is T2, FITC-GPLATSpTPKNG (synthetic construct).
T2 chain: {FITC}-GPLATS[pT]PKNG

Residue numbers refer to the chain shown, from its start. Names and notes keep the numbering of the source. Where no end group is shown, it is not given here. [ ]: non-standard residue; d: D form. The star is where a group is joined. FITC = O=C1OC2(c3ccc(O)cc3Oc3cc(O)ccc32)c2ccc(NC(=S)*)cc21; pT = C[C@@H](OP(=O)(O)O)[C@H](N)C(=O)O; Ahx = NCCCCCC(=O)O

Chain of PBD1 (residues 345–603) F559K (P53350 345-603 F559K): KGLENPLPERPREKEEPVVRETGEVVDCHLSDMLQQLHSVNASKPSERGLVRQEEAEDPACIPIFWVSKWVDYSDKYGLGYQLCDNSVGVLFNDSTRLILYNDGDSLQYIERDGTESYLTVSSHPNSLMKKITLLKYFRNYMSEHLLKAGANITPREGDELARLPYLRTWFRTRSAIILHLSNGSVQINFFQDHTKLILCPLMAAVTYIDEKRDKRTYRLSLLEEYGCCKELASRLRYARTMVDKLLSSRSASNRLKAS
Chain of PBD1 (residues 345–603) F559R (P53350 345-603 F559R): as the sequence (P53350 345-603 F559K) above, with K215R counted along it
Chain of Plk1 polo-box domain, PBD1 (residues 345–603) WT (P53350 345-603): as the sequence (P53350 345-603 F559K) above, with K215F counted along it
Chain of PBD1 (residues 345–603) F559E (P53350 345-603 F559E): as the sequence (P53350 345-603 F559K) above, with K215E counted along it
Chain of PBD1 (residues 345–603) F559D (P53350 345-603 F559D): as the sequence (P53350 345-603 F559K) above, with K215D counted along it

B1: PBD2 S652F (protein)
chain: HLSSPAKNFFKKAAAALFGGKKDKARYIDTHNRVSKEDEDIYKLRHDLKKTSITQQPSKHRTDEELQPPTTTVARSGTPAVENKQQIGDAIRMIVRGTLGSCSSSSECLEDSTMGSVADTVARVLRGCLENMPEADCIPKEQLSTSFQWVTKWVDYSNKYGFGYQLSDHTVGVLFNNGAHMSLLPDKKTVHYYAELGQCSVFPATDAPEQFISQVTVLKYFSHYMEENLMDGGDLPSVTDIRRPRLYLLQWLKSDKALMMLFNDGTFQVNFYHDHTKIIICSQNEEYLLTYINEDRIFTTFRLTTLLMSGCSSELKNRMEYALNMLLQRCN
In general, Kd refers to the free concentration of one partner at which half of the binding sites on the other are occupied at equilibrium, for simple one-to-one binding. The molecule B1 yielded a Kd in test [1] of 62.7 nM.

B2: PBD2 (protein)
chain: B1 chain with F298S
The molecule B2 displayed a Kd in test [1] of 80.2 nM.

B3: FITC-Ahx-DPPLHSpTAI-NH2 (peptide)
peptide: {FITC-Ahx}-DPPLHS[pT]AI-NH2
SMILES: CC[C@H](C)[C@H](NC(=O)[C@H](C)NC(=O)[C@@H](NC(=O)[C@H](CO)NC(=O)[C@H](Cc1c[nH]cn1)NC(=O)[C@H](CC(C)C)NC(=O)[C@@H]1CCCN1C(=O)[C@@H]1CCCN1C(=O)[C@H](CC(=O)O)NC(=O)CCCCCNC(=S)Nc1ccc2c(c1)C(=O)OC21c2ccc(O)cc2Oc2cc(O)ccc21)[C@@H](C)OP(=O)(O)O)C(N)=O
On to B3, for which the Kd in test [2] was 704 nM; in test [3], 460 nM; in test [4], 124 nM; in test [5], 28.1 nM; in test [6] it was 16.8 nM.

B4: MBP-PBD3 A612F (protein)
chain: TPPNPARSLFAKVTKSLFGRKKKSKNHAQERDEVSGLVSGLMRTSVGHQDARPEAPAASGPAPVSLVETAPEDSSPRGTLASSGDGFEEGLTVATVVESALCALRNCIAFMPPAEQNPAPLAQPEPLVWVSKWVDYSNKFGFGYQLSSRRVAVLFNDGTHMALSANRKTVHYNPTSTKHFSFSVGAVPRALQPQLGILRYFASYMEQHLMKGGDLPSVEEVEVPAPPLLLQWVKTDQALLMLFSDGTVQVNFYGDHTKLILSGWEPLLVTFVARNRSFCTYLASHLRQLGCSPDLRQRLRYALRLLRDRSPA
On to B4, for which, in test [7], the Kd was found to be 85.4 nM.

B5: MBP-PBD3 (protein)
chain: B4 chain with F278A
In test [7], B5 registered a Kd of 62.4 nM.

For the origin of these results see PMC10629583 (2023).
